Measured values taken from patent US20230243822A1, “MOLECULAR DISEASE PROFILE AND USE THEREOF FOR MONITORING AND TREATING RHEUMATAOID ARTHRITIS” (JANSSEN BIOTECH, INC., priority 2020, published 2023).

Legend:
[1] = test system: RA patients; conditions: RA patients; cited from earlier work
[2] = test system: 4-analyte M-DP panel (CRP, CXCL10, CXCL13, SAA); experiment: Pharmacodynamic M-DP score, 4-analyte panel CRP, CXCL10, CXCL13, SAA (SOMAscan), clinical studies in RA; type: in vivo, human; conditions: 4-analyte; for M-DP score mean difference ± SD, Good vs. No / M-DP score mean ± SD, DAS28-CRP response group Good / M-DP score mean ± SD, DAS28-CRP response group Moderate / M-DP score mean ± SD, DAS28-CRP response group No: response at week 24
Excerpt: Serum samples and data from eight interventional clinical studies with seven different active treatments for RA or placebo treatment were obtained and analyzed: sirukumab (anti-IL-6) and placebo treatments in SIRROUND-M (NCT01689532; Takeuchi T, et al. Arthritis Res Ther. 2018 Mar. 7; 20(1): 42), SIRROUND-D (NCT01604343; Takeuchi T, et al. Ann Rheum Dis. 2017 Dec.; 76(12): 2001-2008), and SIRROUND-T (NCT01606761; Aletaha D, et al. Lancet. 2017 Mar. 25; 389(10075): 1206-1217); sirukumab and adalimumab (anti-TNF-alpha) treatments in SIRROUND-H (NCT02019472; Taylor PC, et al. Ann Rheum Dis. 2018 May; 77(5): 658-666); golimumab (anti-TNF-alpha) treatment in GO-FURTHER (NCT00973479; Weinblatt ME, et al. Ann Rheum Dis. 2013 March; 72(3): 381-9); guselkumab (anti-IL-23p19), ustekinumab (anti-IL-12/IL-23p40), and placebo treatments in CNTO1275ARA2001 (NCT01645280; Cox JD, et al. […]); JNJ-40346527 (colony-stimulating factor-1 inhibitor) and placebo treatments in 40346527ARA2001 (NCT01597739; Genovese MC, et al. J Rheumatol. 2015 October; 42(10): 1752-60). Plasma samples were obtained from the RA-MAP TACERA study (Cope AP, et al. Nat Rev Rheumatol. 2018 January; 14(1): 53-60) before (baseline) and 6-months after initiation of conventional synthetic disease-modifying anti-rheumatic drugs (csDMARDs). Details of treatment dose groups, concomitant methotrexate use, and previous experience with csDMARDs and biologics are reported in Table 1. The studies were conducted in accordance with the Declaration of Helsinki. The study protocols were reviewed and approved by an independent ethics committee or institutional review board for each study center. Written informed consent was obtained from all patients before study entry. Additional study details and patient characteristics are available in the referenced publications for each study. For SIRROUND-D and SIRROUND-T studies, sets of serum samples from demographically-matched healthy controls were obtained from commercial sources (BioIVT, Westbury, N.Y.).
Serum samples from baseline (week 0) and the time points indicated in Table 1 were provided for quantification of 1189 serum analytes using the SomaScan v3.1 platform (SomaLogic, Boulder, Colo.; www.somalogic.com), with the exception of RA-MAP TACERA, for which plasma samples were analyzed for 1301 analytes using the SomaScan v3.2 platform. For some studies, a redacted dataset reporting data for a subset of the analytes was obtained. Relative fluorescence unit (RFU) data were sequentially normalized for hybridization controls (internal standards per samples), median signal across all samples (assumes same total protein concentration across sample set), and calibration controls (common sample standards across analysis plates). Samples failed quality control standards defined by Somalogic were excluded from analyses. The normalized RFU values were log2-transformed for subsequent analyses.
Changes in analyte expression levels were calculated for individual samples as the log2 transform of the ratio of the analyte level at the indicated time point (visit level) over the analyte level at baseline (baseline level) for a given subject, i.e., log 2(visit level/baseline level). Changes in RA disease-associated analytes per sample were summarized using a pharmacodynamic (PD) molecular disease profile (M-DP) score, defined as the median value of the log 2(visit level/baseline level) values for analytes in the defined M-DP analyte set. […] PD M-DP scores in the log 2(visit level/baseline level) scale can be transformed to percent change from baseline, using the transformation: (2^M-DP score−1)×100%.
In selecting the best minimal set of analytes that performs similarly to the full 14-analyte set, analyte sets that results in significant associations between DAS28-CRP EULAR good vs. no response with p<0.05 for each study were prioritized (Table 4). […]

[3] = SIRROUND-D, score at week 4, sirukumab SC 50 mg q4w
[4] = SIRROUND-D, score at week 4, sirukumab SC 100 mg q2w
[5] = SIRROUND-D, score at week 24, sirukumab SC 50 mg q4w
[6] = SIRROUND-D, score at week 24, sirukumab SC 100 mg q2w
[7] = SIRROUND-H, score at week 4, sirukumab SC 50 mg q4w or adalimumab SC 40 mg q2w
[8] = SIRROUND-M, score at week 4, sirukumab SC 50 mg q4w
[9] = SIRROUND-M, score at week 4, sirukumab SC 100 mg q2w
[10] = SIRROUND-T, score at week 4, sirukumab SC 50 mg q4w
[11] = SIRROUND-T, score at week 4, sirukumab SC 100 mg q2w
[12] = SIRROUND-T, score at week 24, sirukumab SC 50 mg q4w
[13] = SIRROUND-T, score at week 24, sirukumab SC 100 mg q2w

B1: Sirukumab (antibody, chains of the INN, looked up, V domains shown)
VH: EVQLVESGGGLVQPGGSLRLSCAASGFTFSPFAMSWVRQAPGKGLEWVAKISPGGSWTYYSDTVTGRFTISRDNAKNSLYLQMNSLRAEDTAVYYCARQLWGYYALDIWGQGTTVTVSS
VL: EIVLTQSPATLSLSPGERATLSCSASISVSYMYWYQQKPGQAPRLLIYDMSNLASGIPARFSGSGSGTDFTLTISSLEPEDFAVYYCMQWSGYPYTFGGGTKVEIK
notes: a human anti-interleukin-6 (IL-6) monoclonal antibody
clinical efficacy in the underlying clinical studies [1]: clinically efficacious
M-DP score mean ± SD, All treated [2, 3]: −1.09 ± 0.80 log2 (fold/baseline)
M-DP score mean difference ± SD, Good vs. No [2, 3]: −0.47 ± 0.79 (0.0012) log2 (fold/baseline)
M-DP score mean ± SD, DAS28-CRP response group Good [2, 3]: −1.26 ± 0.78 log2 (fold/baseline)
M-DP score mean ± SD, DAS28-CRP response group Moderate [2, 3]: −1.05 ± 0.76 log2 (fold/baseline)
M-DP score mean ± SD, DAS28-CRP response group No [2, 3]: −0.79 ± 0.81 log2 (fold/baseline)
M-DP score mean ± SD, All treated [2, 4]: −1.21 ± 0.78 log2 (fold/baseline)
M-DP score mean difference ± SD, Good vs. No [2, 4]: −0.47 ± 0.76 (0.0041) log2 (fold/baseline)
M-DP score mean ± SD, DAS28-CRP response group Good [2, 4]: −1.39 ± 0.75 log2 (fold/baseline)
M-DP score mean ± SD, DAS28-CRP response group Moderate [2, 4]: −1.01 ± 0.75 log2 (fold/baseline)
M-DP score mean ± SD, DAS28-CRP response group No [2, 4]: −0.92 ± 0.81 log2 (fold/baseline)
M-DP score mean ± SD, All treated [2, 5]: −1.43 ± 0.82 log2 (fold/baseline)
M-DP score mean ± SD, DAS28-CRP response group Good [2, 5]: −1.50 ± 0.83 log2 (fold/baseline)
M-DP score mean ± SD, DAS28-CRP response group Moderate [2, 5]: −1.46 ± 0.57 log2 (fold/baseline)
M-DP score mean ± SD, DAS28-CRP response group No [2, 5]: 0.27 ± 0.00 log2 (fold/baseline)
M-DP score mean ± SD, All treated [2, 6]: −1.79 ± 0.78 log2 (fold/baseline)
M-DP score mean ± SD, DAS28-CRP response group Good [2, 6]: −1.80 ± 0.80 log2 (fold/baseline)
M-DP score mean ± SD, DAS28-CRP response group Moderate [2, 6]: −1.84 ± 0.95 log2 (fold/baseline)
M-DP score mean ± SD, DAS28-CRP response group No [2, 6]: −1.59 ± 0.19 log2 (fold/baseline)
M-DP score mean ± SD, All treated [2, 7]: −0.88 ± 0.69 log2 (fold/baseline)
M-DP score mean difference ± SD, Good vs. No [2, 7]: −0.40 ± 0.59 (0.0549) log2 (fold/baseline)
M-DP score mean ± SD, DAS28-CRP response group Good [2, 7]: −0.92 ± 0.65 log2 (fold/baseline)
M-DP score mean ± SD, DAS28-CRP response group Moderate [2, 7]: −0.95 ± 0.74 log2 (fold/baseline)
M-DP score mean ± SD, DAS28-CRP response group No [2, 7]: −0.52 ± 0.41 log2 (fold/baseline)
M-DP score mean ± SD, All treated [2, 8]: −1.69 ± 0.76 log2 (fold/baseline)
M-DP score mean difference ± SD, Good vs. No [2, 8]: −0.96 ± 0.66 (0.0010) log2 (fold/baseline)
M-DP score mean ± SD, DAS28-CRP response group Good [2, 8]: −1.92 ± 0.63 log2 (fold/baseline)
M-DP score mean ± SD, DAS28-CRP response group Moderate [2, 8]: −1.34 ± 0.75 log2 (fold/baseline)
M-DP score mean ± SD, DAS28-CRP response group No [2, 8]: −0.96 ± 0.85 log2 (fold/baseline)
M-DP score mean ± SD, All treated [2, 9]: −1.87 ± 0.75 log2 (fold/baseline)
M-DP score mean ± SD, DAS28-CRP response group Good [2, 9]: −1.86 ± 0.69 log2 (fold/baseline)
M-DP score mean ± SD, DAS28-CRP response group Moderate [2, 9]: −1.99 ± 0.94 log2 (fold/baseline)
M-DP score mean ± SD, DAS28-CRP response group No [2, 9]: −1.21 ± 0.43 log2 (fold/baseline)
M-DP score mean ± SD, All treated [2, 10]: −1.02 ± 0.84 log2 (fold/baseline)
M-DP score mean difference ± SD, Good vs. No [2, 10]: −0.39 ± 0.73 (0.0126) log2 (fold/baseline)
M-DP score mean ± SD, DAS28-CRP response group Good [2, 10]: −0.91 ± 0.75 log2 (fold/baseline)
M-DP score mean ± SD, DAS28-CRP response group Moderate [2, 10]: −0.82 ± 0.79 log2 (fold/baseline)
M-DP score mean ± SD, DAS28-CRP response group No [2, 10]: −0.50 ± 0.70 log2 (fold/baseline)
M-DP score mean ± SD, All treated [2, 11]: −0.79 ± 0.76 log2 (fold/baseline)
M-DP score mean difference ± SD, Good vs. No [2, 11]: −0.34 ± 0.81 (0.0416) log2 (fold/baseline)
M-DP score mean ± SD, DAS28-CRP response group Good [2, 11]: −1.13 ± 0.80 log2 (fold/baseline)
M-DP score mean ± SD, DAS28-CRP response group Moderate [2, 11]: −1.05 ± 0.93 log2 (fold/baseline)
M-DP score mean ± SD, DAS28-CRP response group No [2, 11]: −0.79 ± 0.83 log2 (fold/baseline)
M-DP score mean ± SD, All treated [2, 12]: −0.85 ± 0.81 log2 (fold/baseline)
M-DP score mean difference ± SD, Good vs. No [2, 12]: −0.43 ± 0.79 (0.0167) log2 (fold/baseline)
M-DP score mean ± SD, DAS28-CRP response group Good [2, 12]: −0.98 ± 0.81 log2 (fold/baseline)
M-DP score mean ± SD, DAS28-CRP response group Moderate [2, 12]: −0.88 ± 0.81 log2 (fold/baseline)
M-DP score mean ± SD, DAS28-CRP response group No [2, 12]: −0.55 ± 0.76 log2 (fold/baseline)
M-DP score mean ± SD, All treated [2, 13]: −1.03 ± 0.83 log2 (fold/baseline)
M-DP score mean difference ± SD, Good vs. No [2, 13]: −0.44 ± 0.78 (0.0067) log2 (fold/baseline)
M-DP score mean ± SD, DAS28-CRP response group Good [2, 13]: −1.18 ± 0.80 log2 (fold/baseline)
M-DP score mean ± SD, DAS28-CRP response group Moderate [2, 13]: −1.19 ± 0.90 log2 (fold/baseline)
M-DP score mean ± SD, DAS28-CRP response group No [2, 13]: −0.74 ± 0.75 log2 (fold/baseline)
